{"source": "the supplement of paper PMC9170038", "system": "MS2 coat protein", "assay": "apparent KD of MS2 coat protein; designed switch direction (-1 OFF switch, 1 ON switch): -1; higher = weaker reporter binding", "outline": "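Apparent KD, taken as the median over clusters for each design, was obtained by curve-fitting normalised cluster fluorescence. Designed RNA switches had been transcribed on Illumina chips by stalled E. coli RNA polymerase and titrated with SNAP-549-labelled MS2 coat protein, doubling from 0.7 or 1.5 nM to 3 µM.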", "key": {"[1]": {"conditions": "Eterna round: R95, input ligand: FMN 200 uM"}, "[2]": {"conditions": "Eterna round: R95, input ligand: microRNA oligo, concentration not stated"}, "[3]": {"conditions": "Eterna round: R95, input ligand: none"}, "[4]": {"conditions": "input ligand: microRNA oligo, concentration not stated"}}}
{"sequence": "GAGAAGGUAGGAUAUACGAAUAAAUAGGGUAGUAAUAAGACACAUGAGGAUCACCCAUGUAGAAGGACCAAGAG [Mat - Exclusion 2 - Mod of my Tesla design - D38] (puzzle: Exclusion 2)", "values": [{"measurement": "apparent KD of MS2 coat protein", "setting": "[1]", "value": 37, "unit": "nM"}, {"measurement": "apparent KD of MS2 coat protein", "setting": "[2]", "value": 19.3, "unit": "nM"}, {"measurement": "apparent KD of MS2 coat protein", "setting": "[3]", "value": 21.1, "unit": "nM"}]}
{"sequence": "CAAAACAGAGGAUAUACAUUUCCUCACCGCCAAAUGGCGGAACAUGAGGAUCACCCAUGUAGAAGGCUGGAAAA [Gesous] (puzzle: Exclusion 2)", "values": [{"measurement": "apparent KD of MS2 coat protein", "setting": "[1]", "value": 292, "unit": "nM"}, {"measurement": "apparent KD of MS2 coat protein", "setting": "[2]", "value": 114, "unit": "nM"}, {"measurement": "apparent KD of MS2 coat protein", "setting": "[3]", "value": 118, "unit": "nM"}]}
{"sequence": "GACUGAACGUGGUCUGGUUACAUGAGGAUCACCCAUGUAGGUCUAAGAACAUGUCUUUUGUACGCUCGUCUUAUAUA [JR_SV3TOV1_Sub066] (puzzle: Sensor v3, turn-off variant 1)", "values": [{"measurement": "apparent KD of MS2 coat protein", "setting": "[1]", "value": 16.7, "unit": "nM"}, {"measurement": "apparent KD of MS2 coat protein", "setting": "[2]", "value": 38.1, "unit": "nM"}, {"measurement": "apparent KD of MS2 coat protein", "setting": "[3]", "value": 15, "unit": "nM"}]}
{"sequence": "ACUUGCGAUAUGCUCGUCUUAUUUUUGUUGACGUUCUAUACAUGAGGAUCACCCAUGUUUUGUUCCUUGUGCUGGUA [JR_SV3TOV2_Sub072] (puzzle: Sensor v3, turn-off variant 2)", "values": [{"measurement": "apparent KD of MS2 coat protein", "setting": "[1]", "value": 161, "unit": "nM"}, {"measurement": "apparent KD of MS2 coat protein", "setting": "[2]", "value": 170, "unit": "nM"}, {"measurement": "apparent KD of MS2 coat protein", "setting": "[3]", "value": 184, "unit": "nM"}]}
{"sequence": "ACCAAGCUAGGAUAUGCUUGGGCUCAAAUAAAUAAACACAAACAUGAGGAUCACCCAUGUAGAAGGAGCUUGCU [Zaabiquer] (puzzle: Exclusion 2)", "values": [{"measurement": "apparent KD of MS2 coat protein", "setting": "[2]", "value": 12.6, "unit": "nM"}]}
{"sequence": "UAACUAACUCCUCGGAGCAACAUGAGGAUCACCCAUGUUAUGAACAUUCGGUGUAACAGGAUGUUUGCUCGUCUGGA [Eternabot (Original) Solution 22] (Eterna round: R97, puzzle: Sensor, turn-off variant 1)", "values": [{"measurement": "apparent KD of MS2 coat protein", "setting": "input ligand: FMN 200 uM", "value": 266, "unit": "nM"}, {"measurement": "apparent KD of MS2 coat protein", "setting": "input ligand: none", "value": 259, "unit": "nM"}]}
{"sequence": "AGUGUGAGGCAGGAUAUGCUAUAUGUAAGUAAUGCAGAAGGGUCUACAUGAGGAUCACCCAUGUGUGCGGUUGA [Ex6 #9] (Eterna round: R97, puzzle: Exclusion 6)", "values": [{"measurement": "apparent KD of MS2 coat protein", "setting": "input ligand: FMN 200 uM", "value": 797, "unit": "nM"}, {"measurement": "apparent KD of MS2 coat protein", "setting": "input ligand: none", "value": 116, "unit": "nM"}]}
{"sequence": "UAUUUAGCAAGCAGAUCCCACAUGAGGAUCACCCAUGUUUUCUGAAUGUACAGAAUUACUGUACUUGCUCGUCUUAU [Winner reversed engineered 36] (Eterna round: R97, puzzle: Sensor, turn-off variant 1)", "values": [{"measurement": "apparent KD of MS2 coat protein", "setting": "input ligand: FMN 200 uM", "value": 76.2, "unit": "nM"}, {"measurement": "apparent KD of MS2 coat protein", "setting": "input ligand: none", "value": 82.6, "unit": "nM"}]}
{"sequence": "GUACGUAGAGGAUAUGGUUAUGAUGACAUGAGGAUCACCCAUGUUAGAGUGGGUAGAUUUCCAGAAGGCUGUGAAC [Eternabot (L1) Solution 98] (Eterna round: R97, puzzle: Exclusion 5)", "values": [{"measurement": "apparent KD of MS2 coat protein", "setting": "input ligand: FMN 200 uM", "value": 1060, "unit": "nM"}, {"measurement": "apparent KD of MS2 coat protein", "setting": "input ligand: none", "value": 1330, "unit": "nM"}]}
{"sequence": "AUAAGGUGAGGAUAUCCACGACCCUACAUGAGGAUCACCCAUGUAUACAGUACGUGUAGAGGAGAAGGUACAUGUC [Eternabot (L2) Solution 78] (Eterna round: R97, puzzle: Exclusion 5)", "values": [{"measurement": "apparent KD of MS2 coat protein", "setting": "input ligand: FMN 200 uM", "value": 28.3, "unit": "nM"}, {"measurement": "apparent KD of MS2 coat protein", "setting": "input ligand: none", "value": 29.3, "unit": "nM"}]}
{"sequence": "UUCGUGCAGCUUUGCUGUACGCGUACAUGAGGAUCACCCAUGUAGGAUAUGGUACGCAAAGCGUGCUAGAAGGAUAUGGAGAGG [Mat - Exclusion NG 3 - Mod of JL - D81] (Eterna round: R96, puzzle: Exclusion NG 3)", "values": [{"measurement": "apparent KD of MS2 coat protein", "setting": "input ligand: FMN 200 uM", "value": 11.7, "unit": "nM"}, {"measurement": "apparent KD of MS2 coat protein", "setting": "[4]", "value": 8.08, "unit": "nM"}, {"measurement": "apparent KD of MS2 coat protein", "setting": "input ligand: none", "value": 13.1, "unit": "nM"}]}
{"sequence": "UUGUUCCAUGUAGGAUAUGCAUAUUCUCAUUAUGCAGAAGGACAUGAGGAUCACCCAUGUAUGUUAUUAUUAUAUGUUACAUGU [Design 2] (Eterna round: R96, puzzle: Exclusion NG 1)", "values": [{"measurement": "apparent KD of MS2 coat protein", "setting": "input ligand: FMN 200 uM", "value": 613, "unit": "nM"}, {"measurement": "apparent KD of MS2 coat protein", "setting": "[4]", "value": 54.6, "unit": "nM"}, {"measurement": "apparent KD of MS2 coat protein", "setting": "input ligand: none", "value": 78.5, "unit": "nM"}]}
{"sequence": "UGCUGACGAGGAUAUACAUGAGGAUCACCCAUGUUGGUUCAGCGACGAUAGUCGCAAUGUAGAAGGUGUCAGCA [E3/9-B2] (Eterna round: R97, puzzle: Exclusion 3)", "values": [{"measurement": "apparent KD of MS2 coat protein", "setting": "input ligand: FMN 200 uM", "value": 748, "unit": "nM"}, {"measurement": "apparent KD of MS2 coat protein", "setting": "input ligand: none", "value": 97.2, "unit": "nM"}]}
{"sequence": "CUCUUGUAAGGAUAUCUGACAAGUGACGAAAGUCACAGUUCAGAGAAGGUACAUGAGGAUCACCCAUGUAGAAC [Exclusion 4 - Mod Brourd Ex 4-3: 41] (puzzle: Exclusion 4)", "values": [{"measurement": "apparent KD of MS2 coat protein", "setting": "[2]", "value": 60.6, "unit": "nM"}]}
{"sequence": "AUUAAAACGGCAGGAUAUCAGCGACAUGAGGAUCACCCAUGUUAGGGCUGACCCUGGAGUCUGGCUGAGAAGGGCCGACUCUCA [Riququ] (Eterna round: R96, puzzle: Exclusion NG 2)", "values": [{"measurement": "apparent KD of MS2 coat protein", "setting": "input ligand: FMN 200 uM", "value": 192, "unit": "nM"}, {"measurement": "apparent KD of MS2 coat protein", "setting": "[4]", "value": 33.2, "unit": "nM"}, {"measurement": "apparent KD of MS2 coat protein", "setting": "input ligand: none", "value": 59.9, "unit": "nM"}]}
{"sequence": "CCGGAAAUGCAGGAUAUCGUAUCGGAUACGAUACGAGAAGGGUAUACAUGAGGAUCACCCAUGUGUCCUCCCGG [Fiskers Ex 6 - 53] (puzzle: Exclusion 6)", "values": [{"measurement": "apparent KD of MS2 coat protein", "setting": "[2]", "value": 28, "unit": "nM"}]}
{"sequence": "CUUUUGUGAGGAUAUGGUCUCGAUGACAUGAGGAUCACCCAUGUAACAUGGGACUUGUGACUAGAAGGCACUAACG [JR_Ex5_Sub024] (Eterna round: R97, puzzle: Exclusion 5)", "values": [{"measurement": "apparent KD of MS2 coat protein", "setting": "input ligand: FMN 200 uM", "value": 22.6, "unit": "nM"}, {"measurement": "apparent KD of MS2 coat protein", "setting": "input ligand: none", "value": 16.4, "unit": "nM"}]}
